Experimental data taken from PMC10907630.

System: tau ΔMTBD-DBR (1N4R) del242-265, P10636-7
Assay: EMSA
Details: 10 mM NaCl; text gives 430; EMSA: 20 nM DNA or nucleosome, 20 mM HEPES pH 7.2, 10 mM NaCl (or 150), 0.5 mM TCEP, 0.1% Tween-20, 5% sucrose, room temperature 20 min; FA: 10 nM DNA, same …

Sequence of tau ΔMTBD-DBR (1N4R) del242-265, P10636-7 (P10636 other isoform, or with tags, fused parts or gaps mutant): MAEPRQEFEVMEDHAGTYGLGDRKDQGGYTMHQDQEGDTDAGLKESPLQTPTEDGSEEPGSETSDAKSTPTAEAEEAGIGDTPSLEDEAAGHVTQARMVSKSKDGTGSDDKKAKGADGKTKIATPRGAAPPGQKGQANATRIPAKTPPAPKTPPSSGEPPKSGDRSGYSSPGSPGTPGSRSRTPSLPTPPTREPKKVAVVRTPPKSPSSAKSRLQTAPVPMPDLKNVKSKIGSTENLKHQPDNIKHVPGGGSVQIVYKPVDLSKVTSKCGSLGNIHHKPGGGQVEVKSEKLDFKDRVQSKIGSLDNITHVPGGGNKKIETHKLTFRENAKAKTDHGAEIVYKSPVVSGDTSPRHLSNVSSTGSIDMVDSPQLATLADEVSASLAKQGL

## ACTACGCGGCCGCCCTGGAGAATCCCGGTGCCGAGGCCGCTCAATTGGTCGTAGACAGCTCTAGCACCGCTTAAACGCACGTACGCGCTGTCCCCCGCGTTTTAACCGCCAAGGGGATTACTCCCTAGTCTCCAGGCACGTGTCAGATATATACATCCTGTGCATGTAAGATCCAGT (double strand) [177 bp DNA (601)]
  Kd: 427 nM
